# Results taken from PMC10267887.
# “And” between values parts separate entries of the source, which are not always exact repeats. Identical values can stand only once.
# What was measured:
# [1] = molecular target: fibroblast growth factor 2 fused to GFP (FGF2-GFP), His-tagged (UniProt P09038); test: dual(+1)-FCS (brightness analysis by fluorescence correlation spectroscopy); 200 nM FGF2-GFP on immobilised GUVs of plasma-membrane-like lipids with 2 mol % PI(4,5)P2, HEPES buffer (25 mM HEPES, 150 mM NaCl, pH 7.4); average oligomeric state per GUV; FINAL state (t >= 240 min), permeabilized (leaky) GUVs
# [2] = molecular target: fibroblast growth factor 2 fused to GFP (FGF2-GFP), His-tagged (UniProt P09038); test: dual(+1)-FCS (brightness analysis by fluorescence correlation spectroscopy); as a1; FINAL state (t >= 240 min), (leaky to leaky) GUVs only
# [3] = molecular target: fibroblast growth factor 2 fused to GFP (FGF2-GFP), His-tagged (UniProt P09038); test: dual(+1)-FCS (brightness analysis by fluorescence correlation spectroscopy); as a1; INITIAL state (t = 60-120 min), leaky, (leaky to leaky) GUVs
substance,measurement,setting,value
"fibroblast growth factor 2 fused to GFP (FGF2-GFP), His-tagged (from UniProt P09038 1-288) (natural protein)",stoichiometry N,[1],2 and 6
same,stoichiometry N,[2],< 10 m.u. and 4.21 m.u.
same,stoichiometry N,[3],2 and 6
